Experimental data as given in US11298402B2, “Lysosomal degradation of lipids and proteins and method of use thereof” (University of Ottawa, priority 2015, dated 2022).
“Also recorded” adds a separate entry of the source.

B1: Arl8b^T34N: putative GDP-bound, dominant negative Arl8b mutant (Thr-to-Asn at 34; SEQ ID NO: 12), expressed from plasmid or adenovirus Adv-MG1023; tagged forms used (protein)
chain: MLALISRLLDWFRSLFWKEEMELTLVGLQYSGKNTFVNVIASGQFSEDMIPTVGFNMRKVTKGNVTIKIWDIGGQPRFRSMWERYCRGVNAIVYMIDAADREKIEASRNELHNLLDKPQLQGIPVLVLGNKRDLPNALDEKQLIEKMNLSAIQDREICCYSISCKEKDNIDITLQWLIQHSKSRRS
modifications: GFP/RFP tags in some forms; T34N substitution, GDP-binding
notes: tagged forms used
B2: Arl8b^Q75L: putative GTP-bound, dominant active Arl8b mutant (Gln-to-Leu at 75; SEQ ID NO: 13), expressed from plasmid or adenovirus Adv-MG1022; tagged forms used (protein)
chain: MLALISRLLDWFRSLFWKEEMELTLVGLQYSGKTTFVNVIASGQFSEDMIPTVGFNMRKVTKGNVTIKIWDIGGLPRFRSMWERYCRGVNAIVYMIDAADREKIEASRNELHNLLDKPQLQGIPVLVLGNKRDLPNALDEKQLIEKMNLSAIQDREICCYSISCKEKDNIDITLQWLIQHSKSRRS
modifications: GFP/RFP tags in some forms; Q75L substitution, GTP-binding
notes: tagged forms used

Tests used:
[1] = tested on: endogenous HOPS subunits (Vps41, Vps11, Vps39); test: Proximity ligation assay (in situ co-IP) of Arl8b with HOPS subunits; type: cell-based, rat; settings: mCherry-tagged Arl8b mutants; baseline and 1 h post-EPA
Experimental: In certain non-limiting examples described herein, McA-RH7777 cells stably expressing human apoB-100 and human apoC-III (designated A18-C3) were used for the studies. […] In addition, these studies, particularly those concerning EPA- or DHA-triggered lysosomal motility and CLD degradation, were also performed using primary rat hepatocytes. Transfection of plasmids encoding proteins of interest, or transfection of siRNA specific for silencing target gene expression, was achieved using the FuGENE HP Extreme reagent (Roche). Representative gene silencing siRNA sequences, which are not meant to be limiting, are described in Table 1, and plasmids encoding proteins of interest are described in Table 2. The effectiveness of siRNA silencing was verified by Western-blotting of cellular content of the target proteins, and by intracellular localization assay using siRNA-Tracker (Mirus Bioscience). Twenty-four h after plasmid transfection, or 48 h after siRNA transfection, the cells were cultured in lipid-rich media containing fetal bovine serum (20%) and OA (0.4 mM). The lipid-laden cells were switched to fresh media supplemented with OA or EPA (0.4 mM). In live imaging experiments, LipidTOX Red (Life Technologies) and LysoTracker (Life Technologies) were added to media prior to EPA treatment, to visualize lipid droplets and lysosomes, respectively. For visualizing peroxisomes, Peroxisome-GFP (Invitrogen) was introduced to the cells 24 h prior to experiments. Quantification of cell lipid contents was achieved either by direct mass measurement (HPTLC) and counting the number of lipid droplets using Image J Lipid Droplet Counter Plug-In, or indirectly by Western blot analysis of cellular content of ADRP. Secretion of apoB and TG-rich lipoprotein was determined by Western blot analysis and metabolic labeling. Mitochondrial β-oxidation was measured using MitoSOX Red (Life Technologies) in situ. Autophagic flux was determined by using Cyto-ID assay (Enzo Life Science) and by monitoring GFP-LC3 clustering in situ. Interaction of Arl8b and subunits of the HOPS complex was determined in situ by the proximity ligation assay (Olink Biosience). Cytoplasmic pH was measured using the cytosolic pHrodo indicator reagent (Invitrogen). Live imaging of fluorescent-tagged proteins was performed 1 h post-EPA treatment. Cells were also collected at the time of EPA treatment for transmission EM and tomography, as well as immuno-EM. For movies, cells were imaged at 60 sec intervals every 5 min, for a total of 30 min.
Cells were transfected with plasmids encoding RFP-tagged Arl8b^WT, Arl8b^Q75L, or Arl8b^T34N. The cells were treated with OA for 16 h (baseline condition as control). […] Quantification of signals was done in a total of 50 cells under each condition from 3 independent experiments.

[2] = tested on: McA-RH7777 cells (A18-C3); test: Immuno-EM of Arl8b organellar association; type: cell-based, rat; settings: RFP-tagged Arl8b in transfected cells, 1 h post-EPA
Experimental: For immunogold labeling, pellets of cells cultured in media containing OA or EPA (0.4 mM) were fixed with 0.5% glutaraldehyde and 4% paraformaldehyde in 0.1 M phosphate buffer (pH 7.4) and dehydrated through a series of graded ethanol dilutions, and embedded in LR White acrylic resin (London Resin Company). Ultrathin sections (80 nm) were placed on Formvar-coated nickel grids. For post-embedding immunolabeling, the sections were incubated with an anti-Arl8b antibody (Fitzgerald) for 1 h. For ^RFPArl8b-transfected cells, that primary antibody used was anti-RFP (Abcam). After washing with 0.2 M sodium cacodylate buffer containing 0.1% calcium chloride, pH 7.4, the samples were incubated with the secondary antibody conjugated with 10-nm gold particles. To increase contrast, the ultrathin sections were stained with 2% uranyl acetate for 6 min and Reynold's lead for 5 min. The grids were examined with a Tecnai 12 120 kV TEM as described above.

hepatic cells [3] = test: Prolonged oleate treatment (OA-induced steatosis) of hepatic cells; type: cell-based; settings: for steatosis (CLD accumulation): oleate 0.4 mM for up to 3 days
Description: FIG. 36 illustrates that the LD content in cells cultured under lipid-rich conditions may be manipulated by expression of different forms of Arl8b. Images in the top row show position of lysosomes in cells cultured in a lipid-rich medium (i.e. supplemented with oleate) for up to 4 days. After 1-day treatment with oleate, lysosomes (stained with LysoTracker, green) were accumulated in the perinuclear regions of cells. However after 2-day oleate treatment, lysosomes were relocated towards the LDs at cell periphery. The relocation of lysosomes from the perinuclear region toward cell periphery indicates perturbed lysosomal motility under oleate-treatment conditions, which leads to prolonged association of lysosomes with LDs. Accumulation/higher interaction of lysosomes on LDs became more pronounced after 3- and 4-day treatment with oleate, with clear rings of lysosomes around LDs. Expression of the GDP-bound form of Arl8b, or Arl8b^T34N (or Arl8b “DN”, dominant negative), protects hepatocytes from accumulation of LDs upon long-term treatment with oleate. Note that even after 3 days, cells expressing Arl8b “DN” were healthy and accumulated low numbers of LDs (middle row). In contrast, expression of the GTP-bound form of Arl8b, or Arl8b^Q75L (or Arl8b “DA”, dominant active), exacerbated accumulation of LDs in cells (images in the bottom row). In fact, the cells could not tolerate long-term treatment and started to die after day 2. This situation may be similar to that in advanced levels of fatty liver, which causes hepatocyte apoptosis;
In these cells, lysosomes were continuously in contact with CLD, indicative of stalled lysosomal motility. This persistent lysosomal interaction with CLDs (i.e. “kiss” without “run”) clearly indicates the interfered process of microautophagy and lack of a mechanism in the cells, after prolonged OA treatment, that facilitates dissociation of lysosomes from CLDs, blocking the engulfment process. Thus, phenotypically, accumulation of CLD in cells cultured in lipid-rich media (e.g. supplementation with 0.4 mM OA) is invariably associated with a compromised lysosomal motility (i.e. kiss-and-run).

C57BL/6 mice = test: Diet-induced fatty liver mouse model (high-fat-high-sucrose diet), Oil Red O; type: in vivo; settings: adenovirus injected 1 day before HFHS diet for up to 4 days
Experimental: The respective Arl8b^T34N (DN), Arl8b^Q75L (DA), and Arl8b^WT constructs, along with empty virus (EV; control treatment) were injected into mice 1 day prior to feeding with a high fat diet for up to 4 days. The livers were stained with Oil Red O to determine the lipid contents, under the expression of various forms of Arl8b.
In these experiments, C57BL/6 mice were injected with adenovirus encoding different variants, namely Arl8b^T34N, Arl8b^Q75L, and Arl8b^WT. In these mice, expression of Arl8b proteins encoded by the adenoviral vectors lasts at least a few weeks. Thus, 1-day after viral injection, the mice were placed on a high-fat-high-sucrose (HFHS) diet for up to 4 days.

hepatic cells [4] = test: Hepatic glucose uptake (fluorescent 2-NBDG assay); type: cell-based; settings: transfected cells treated with EPA

Row | Molecule | binding to endogenous HOPS subunits [1] | organellar association (lysosome vs CLD) [2] | steatosis (CLD accumulation) (hepatic cells [3]) | liver steatosis (Oil Red O) (C57BL/6 mice) | glucose uptake (hepatic cells [4]) | cell survival under OA treatment (hepatic cells [3]; medium with 0.4 mM OA, 2-day incubation)
1 | B1 | only shows interaction with Vps39 | mainly CLD-borne | without indication of steatosis | nearly absent lipid accumulation | increased rate of glucose uptake | 
2 | B2 | binds to Vps41 and Vps11; also recorded: does not bind to Vps39 | predominately associated with lysosomes | developed severe steatosis | developed pronounced steatosis | virtually abolished glucose uptake | most of the cells died
